Experimental data published in doi:10.1101/2023.03.19.533240.

Molecular target: MBP-DDX3X WT (UniProt O00571 1-662)
Assay: time-resolved fluorescence anisotropy

Chain of MBP-DDX3X WT (O00571 whole entry): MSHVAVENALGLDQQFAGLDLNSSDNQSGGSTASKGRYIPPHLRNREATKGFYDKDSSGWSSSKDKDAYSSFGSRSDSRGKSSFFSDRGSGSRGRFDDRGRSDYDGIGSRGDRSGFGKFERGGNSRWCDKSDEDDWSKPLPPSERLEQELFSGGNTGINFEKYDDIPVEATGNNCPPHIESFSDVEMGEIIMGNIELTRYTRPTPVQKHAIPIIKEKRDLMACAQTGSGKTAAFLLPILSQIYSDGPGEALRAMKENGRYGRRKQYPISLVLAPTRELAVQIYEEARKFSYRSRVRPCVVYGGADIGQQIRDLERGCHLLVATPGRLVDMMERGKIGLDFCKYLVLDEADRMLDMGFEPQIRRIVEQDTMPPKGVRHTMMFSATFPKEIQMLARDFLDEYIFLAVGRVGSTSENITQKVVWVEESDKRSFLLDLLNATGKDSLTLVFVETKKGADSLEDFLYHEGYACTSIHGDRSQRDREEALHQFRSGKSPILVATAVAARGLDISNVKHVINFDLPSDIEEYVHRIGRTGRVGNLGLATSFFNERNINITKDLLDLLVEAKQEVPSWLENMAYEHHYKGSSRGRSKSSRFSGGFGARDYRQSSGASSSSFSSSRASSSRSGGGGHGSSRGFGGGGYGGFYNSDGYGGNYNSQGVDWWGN

B1: long strand 42-mer ssRNA (ssRNA)
RNA: UUUUUUUUUUUUUUUUUUUUUUUUCGGAGCGACGGCAGCGGU
  binding result: binds
